Key:
[1] = target: T1, DR3, expressed on transfected COS cells (UniProt Q93038 25-417, limits assumed); assay: slide binding on transfected COS cells, 125I anti-leucine zipper antibody, autoradiography
T1 construct: whole, on cells; also called Apo3; WSL-1
T1 sequence (looked up): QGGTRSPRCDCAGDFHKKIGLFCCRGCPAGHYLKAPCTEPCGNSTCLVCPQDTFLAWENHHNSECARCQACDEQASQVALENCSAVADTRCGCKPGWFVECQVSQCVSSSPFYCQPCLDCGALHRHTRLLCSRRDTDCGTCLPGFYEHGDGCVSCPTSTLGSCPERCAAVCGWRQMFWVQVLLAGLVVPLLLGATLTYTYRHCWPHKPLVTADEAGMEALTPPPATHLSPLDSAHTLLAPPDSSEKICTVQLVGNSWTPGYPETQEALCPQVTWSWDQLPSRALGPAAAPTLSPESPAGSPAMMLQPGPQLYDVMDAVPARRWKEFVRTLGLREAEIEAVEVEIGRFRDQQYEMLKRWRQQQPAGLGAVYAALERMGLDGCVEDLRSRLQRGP
Procedure: Slides of COS cells were transfected with expression vectors containing TWEAKR, DR3, or vector without insert (control). After two days the cells were incubated with concentrated supernatants from CV-1 cells transfected with a vector encoding the leucine zipper TWEAK extracellular domain fusion protein. One hour later the cells were washed and probed with an ¹²⁵Ilabeled antibody against the leucine-zipper domain. The slides were washed, fixed, and autoradiography was performed using x-ray film. The TWEAKR transfected cells bound significant amounts of TWEAK. […] This experiment confirmed that the TWEAKR polypeptide identified in part A above, rather than DR3, is the major receptor for TWEAK. After discovery of the functional TWEAK receptor, other investigators also reported that DR3 is not the major receptor for TWEAK (Kaptein et al., FEBS Lett., 485(2-3):135, 2000. The TWEAK-TWEAKR binding interaction was further characterized by Scatchard analysis.

[2] = target: T2, human TWEAK receptor (TWEAKR), expressed on transfected COS cells (human, UniProt Q9NP84 28-129); assay: expression cloning by panning with TWEAK coated beads, then slide binding on transfected COS cells
T2 construct: 129 residue polypeptide cloned from a HUVEC library; Signal peptide 1-27 is predicted
T2 sequence: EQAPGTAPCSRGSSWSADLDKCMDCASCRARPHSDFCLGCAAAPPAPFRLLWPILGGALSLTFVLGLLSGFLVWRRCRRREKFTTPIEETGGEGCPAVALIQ
Text: To clone TWEAKR cDNA, an expression vector encoding a growth hormone leader, a leucine zipper multimerization domain, and the C-terminal extracellular domain of human TWEAK (see Chicheportiche et al., J. Biol. Chem. 272(51):32401, 1997) was constructed. This expression vector, which was named pDC409-LZ-TWEAK, comprised the DNA sequence SEQ ID NO: 1 and encoded the polypeptide SEQ ID NO:2. pDC409-LZ-TWEAK conditioned supernatants were produced by transient transfection into CVI-EBNA cells. These supernatants were incubated with magnetic beads coated with polyclonal goat anti-mouse antibody that had previously been incubated with a mouse monoclonal antibody against the leucine zipper. Control beads were produced by mixing the coated beads with supernatants from cells transfected with empty vector.
A monolayer of COS cells grown in a T175 flask was transfected with 15 μg of DNA pools of complexity of 100,000 from a human umbilical vein endothelial cell (HUVEC) cDNA expression library. After 2 days these cells were lifted from the flask, and incubated in 1.5 mls of binding media plus 5% non-fat dried milk for 3 hours at 4° C. on a rotator wheel. […] Slide binding was performed as described more fully below, with the exception that TWEAKR positive slides were detected by incubation with […] followed by incubation with ¹²⁵I-labled M15 anti-leucine zipper.

[3] = target: T3, human TWEAKR-Fc (TWEAKR extracellular domain fused to Fc portion from human IgG1) (human, 125-I labeled in the Scatchard assay); assay: ligand blot of TweakR-Fc (with and without DTT, with and without heating at 100° C.) probed with TWEAK-leucine zipper supernatant and 125I M15 anti-leucine zipper
T3 construct: the assays name only TWEAKR-Fc; also called huTWEAKR-Fc
Procedure: Ligand blots were generated by running either TweakR-Fc or RP-Fc as a control on a standard SDS-PAGE and blotted onto nitrocellulose. The separate samples were prepared by with and without the addition of reducing agent (DTT) and with and without heating at 100° C. to denature the proteins. This blot was probed with TWEAK-leucine zipper conditioned supernatants followed by ¹²⁵I labeled M15 anti-leucine zipper.

B1: leucine zipper TWEAK extracellular domain fusion protein (product of pDC409-LZ-TWEAK) (ligand)
chain: not shown
notes: Used as conditioned supernatant of transfected CV-1/EBNA cells; also called TWEAK-leucine zipper
[1]
  binding result: no binding
[2]
  binding result: binds
[3]
  binding result: binds
